Publication PMC8533642 (Journal of medicinal chemistry, 2021)
Square brackets hold non-standard residues; d marks the D form. dPhe(4-I) = N[C@H](Cc1ccc(I)cc1)C(=O)O; 2Nal = N[C@@H](Cc1ccc2ccccc2c1)C(=O)O; d2Nal = N[C@H](Cc1ccc2ccccc2c1)C(=O)O

Legend:
[1] = target: mouse melanocortin-5 receptor (mouse) (UniProt P41149)
[2] = target: mouse melanocortin-1 receptor (mouse) (UniProt Q01727)
[3] = target: mouse melanocortin-3 receptor (mouse) (UniProt P33033)
[4] = target: mouse melanocortin-4 receptor (mouse) (UniProt P56450)
Chain of mouse melanocortin-4 receptor (mouse) (P56450 whole entry): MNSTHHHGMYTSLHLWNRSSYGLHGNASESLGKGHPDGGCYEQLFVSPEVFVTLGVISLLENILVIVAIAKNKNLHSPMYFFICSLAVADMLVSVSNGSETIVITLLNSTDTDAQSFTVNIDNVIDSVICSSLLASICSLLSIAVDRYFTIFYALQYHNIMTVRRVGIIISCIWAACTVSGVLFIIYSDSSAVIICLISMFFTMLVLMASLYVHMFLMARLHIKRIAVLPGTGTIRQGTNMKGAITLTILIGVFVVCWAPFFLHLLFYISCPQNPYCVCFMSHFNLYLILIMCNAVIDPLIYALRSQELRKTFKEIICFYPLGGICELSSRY

[5] = target: mouse melanocortin-4 receptor (mouse) (UniProt P56450); remark: listed apart in the source
[6] = target: mouse melanocortin-3 receptor (mouse) (UniProt P33033); remark: listed apart in the source

Chain of mouse melanocortin-1 receptor (mouse) (Q01727 whole entry): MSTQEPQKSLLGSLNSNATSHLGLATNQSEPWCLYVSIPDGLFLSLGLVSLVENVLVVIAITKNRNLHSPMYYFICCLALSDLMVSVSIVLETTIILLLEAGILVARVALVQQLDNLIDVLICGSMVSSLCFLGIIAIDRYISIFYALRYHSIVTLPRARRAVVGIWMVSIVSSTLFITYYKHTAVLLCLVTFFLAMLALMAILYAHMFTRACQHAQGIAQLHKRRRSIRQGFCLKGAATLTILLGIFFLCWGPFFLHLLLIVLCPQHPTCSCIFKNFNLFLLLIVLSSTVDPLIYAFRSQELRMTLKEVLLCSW
Chain of mouse melanocortin-3 receptor (mouse) (P33033 whole entry): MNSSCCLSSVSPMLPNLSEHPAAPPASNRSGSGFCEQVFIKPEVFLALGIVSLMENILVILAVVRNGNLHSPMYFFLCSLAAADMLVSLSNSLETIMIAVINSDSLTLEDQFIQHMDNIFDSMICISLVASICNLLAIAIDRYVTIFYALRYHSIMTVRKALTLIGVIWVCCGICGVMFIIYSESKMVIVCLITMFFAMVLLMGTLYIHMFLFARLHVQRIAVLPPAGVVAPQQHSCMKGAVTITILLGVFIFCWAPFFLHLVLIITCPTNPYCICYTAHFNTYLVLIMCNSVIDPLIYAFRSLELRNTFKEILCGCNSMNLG
Chain of mouse melanocortin-5 receptor (mouse) (P41149 whole entry): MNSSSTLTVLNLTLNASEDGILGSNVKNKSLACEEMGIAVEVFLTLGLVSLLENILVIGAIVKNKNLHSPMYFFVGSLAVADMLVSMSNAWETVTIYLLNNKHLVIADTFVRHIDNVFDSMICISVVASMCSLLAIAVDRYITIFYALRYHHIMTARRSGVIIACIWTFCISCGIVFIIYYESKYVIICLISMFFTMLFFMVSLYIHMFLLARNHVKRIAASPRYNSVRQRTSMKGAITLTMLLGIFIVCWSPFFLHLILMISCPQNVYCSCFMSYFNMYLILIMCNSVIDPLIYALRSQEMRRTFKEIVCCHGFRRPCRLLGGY

Row | agonist EC50, cAMP AlphaScreen [1] | % receptor activation relative to NDP-MSH (partial agonist), cAMP AlphaScreen [2] | apparent EC50 (partial agonist), cAMP AlphaScreen [2] | agonist EC50, cAMP AlphaScreen [3] | agonist EC50, cAMP AlphaScreen [4] | pA2, antagonism of NDP-MSH at mMC4R, Schild analysis, cAMP AlphaScreen [5] | % of maximal NDP-MSH response at 100 μM, cAMP AlphaScreen [1] | % of maximal NDP-MSH response at 100 μM, cAMP AlphaScreen [2] | % of maximal NDP-MSH response at 100 μM, cAMP AlphaScreen [3] | % of maximal NDP-MSH response at 100 μM, cAMP AlphaScreen [4] | agonist EC50, cAMP AlphaScreen [2] | pA2, antagonism of NDP-MSH at mMC3R, Schild analysis, cAMP AlphaScreen [6] | Substance
1 | > 100 µM | 30% | 6 µM | > 100 µM | > 100 µM | 8.2 |  |  |  |  |  |  | Ac-DNal(2’)-Arg-DNal(2’)-DLys-NH2 (peptide)
2 |  |  |  | > 100 µM | > 100 µM |  | 40% | 55% |  |  |  |  | Ac-DNal(2’)-DNal(2’)-Nal(2’)-Arg-NH2 (peptide)
3 | 0.23 µM |  |  | > 100 µM | > 100 µM |  |  |  |  |  | > 100 µM |  | Ac-DPhe(pI)-DNal(2’)-DNal(2’)-Arg-NH2 (peptide)
4 | > 100 µM |  |  | > 100 µM | > 100 µM | 6.3 |  | 35% |  |  |  |  | Ac-DPhe(pI)-DNal(2’)-DNal(2’)-DLys-NH2 (peptide)
5 | 0.13 µM |  |  | > 100 µM | > 100 µM |  |  | 40% |  |  |  |  | Ac-DPhe(pI)-DNal(2’)-DPhe(pI)-Arg-NH2 (peptide)
6 |  |  |  |  |  |  |  | 60% |  |  |  |  | Ac-Phe(pI)-Nal(2’)-Phe(pI)-Arg-NH2 (peptide)

The remaining lines, values behind:

Row | Substance | agonist EC50, cAMP AlphaScreen [1] | % receptor activation relative to NDP-MSH (partial agonist), cAMP AlphaScreen [2] | apparent EC50 (partial agonist), cAMP AlphaScreen [2] | agonist EC50, cAMP AlphaScreen [3] | agonist EC50, cAMP AlphaScreen [4] | pA2, antagonism of NDP-MSH at mMC4R, Schild analysis, cAMP AlphaScreen [5] | % of maximal NDP-MSH response at 100 μM, cAMP AlphaScreen [1] | % of maximal NDP-MSH response at 100 μM, cAMP AlphaScreen [2] | % of maximal NDP-MSH response at 100 μM, cAMP AlphaScreen [3] | % of maximal NDP-MSH response at 100 μM, cAMP AlphaScreen [4] | agonist EC50, cAMP AlphaScreen [2] | pA2, antagonism of NDP-MSH at mMC3R, Schild analysis, cAMP AlphaScreen [6]
7 | Ac-DNal(2’)-Arg-Nal(2’)-DNal(2’)-NH2 (peptide) |  |  |  |  |  | 6.7 | 25% | 40% | 30% | 30% |  | 
8 | Ac-DNal(2’)-DNal(2’)-Nal(2’)-DLys-NH2 (peptide) | > 100 µM |  |  | > 100 µM | > 100 µM |  |  | 45% |  |  |  | 
9 | Ac-DPhe(pI)-DNal(2’)-DPhe(pI)-DLys-NH2 (peptide) | > 100 µM |  |  | > 100 µM | > 100 µM |  |  |  |  |  | > 100 µM | 
10 | Ac-DPhe(pI)-DNal(2’)-Nal(2’)-Arg-NH2 (peptide) | 0.8 µM |  |  | > 100 µM | > 100 µM | 5.8 |  | 20% |  |  |  | 
11 | Ac-DPhe(pI)-DNal(2’)-Nal(2’)-DLys-NH2 (peptide) |  |  |  |  | > 100 µM |  | 50% | 40% | 20% |  |  | 
12 | Ac-DPhe(pI)-DNal(2’)-Trp-Arg-NH2 (peptide) | > 100 µM |  |  | > 100 µM | > 100 µM | 5.6 |  |  |  |  | > 100 µM | 
13 | Ac-[d2Nal]RW[d2Nal]-NH2 | > 100 µM |  |  |  |  |  |  | 40% | 40% | 30% |  | 5.7
14 | Ac-[d2Nal]R[2Nal]R-NH2 | > 100 µM |  |  | > 100 µM |  | 8.8 |  |  |  | 30% | > 100 µM | 
15 | Ac-[dPhe(4-I)]RW[d2Nal]-NH2 | > 100 µM |  |  |  |  | 7.6 |  | 45% | 25% | 35% |  | 
16 | Ac-[dPhe(4-I)]R[2Nal][d2Nal]-NH2 | > 100 µM |  |  | > 100 µM | > 100 µM | 6.7 |  | 55% |  |  |  | 
